Measured values published in PMC4340663.

How the values were obtained:
[1] = target: KNH1144 SOSIP gp140 trimer with the hexaarginine (R6) mutation (HIV-1 subtype A isolate KNH1144); test: native gel or EMSA
[2] = target: KNH1144 SOSIP gp140 trimer with the hexaarginine (R6) mutation (HIV-1 subtype A isolate KNH1144); test: negative-stain electron microscopy

Substance	stoichiometry N [1]	stoichiometry N (molecules per trimer) [1]	stoichiometry N (molecules per trimer) [2]
KNH1144 SOSIP gp140 trimer with the hexaarginine (R6) mutation (complex)	3		
four-domain soluble CD4 (domain or fragment)		3	3
two-domain soluble CD4 (domain or fragment)		3	
